This note sets out measurements from patent US20070123465A1 (IPF PHARMACEUTICALS, published 2007).

Square brackets hold non-standard residues; d marks the D form. Ends that are not written are not given here. miniPEG = PEG spacer between peptide and cysteine; dTic = O=C(O)[C@H]1Cc2ccccc2CN1; NMeL = CN[C@@H](CC(C)C)C(=O)O

Assay [1] concerns the target T1, fusion peptide of HIV gp41 (HIV-1 strain NL4-3) (HIV-1 strain NL4-3). Briefly: cell-based or functional assay.
In assay [2] the target is T1, fusion peptide of HIV gp41 (HIV-1 …). Briefly: cell-based or functional assay. The source holds these as a separate data set.

LEAIPCSIPPEFLFGKPFVF (not fully specified) [VIRIP (virus inhibiting peptide)]: the “IC50, inhibition of HIV infection, HIV strain NL4-3” value in assay [1] worked out at 15000 nM.

Take LEAIPMCIPPEFLFGKPFVF (also: homodimer via intermolecular disulfide between Cys7 of the two chains) [VIR-577]: in assay [2], the “IC50 NL4-3 [nM], anti-HIV activity (infection of P4-CCR5 indicator cells, beta-galactosidase reporter)” value (“IC50 NL4-3 [nM], anti-HIV activity” for short) came to 3270 nM. As for LEKIPCSIP[dP]EVAFNKPFVF (also: homodimer via intermolecular disulfide Cys6-Cys6) [VIR-705], in assay [2], the “IC50 NL4-3 [nM], anti-HIV activity” value is 484 nM. As to LEAIPMSIPPEFLFGKPFVF-{miniPEG-Cys-NH2} (also: homodimer disulfide bonded through the C-terminal cysteine) [VIR-673], the “IC50 NL4-3 [nM], anti-HIV activity” value in assay [2] was determined as 664 nM.

For the molecule [NMeL]EDIPCSIPPEFLFGKPFVF (also: homodimer via intermolecular disulfide between Cys6 of the two chains) [VIR-717], in assay [2], the “IC50 NL4-3 [nM], anti-HIV activity” value was 635 nM.

B1: VIR-574 (peptide)
peptide: LEAIPMSIPPEFLFGKPFVFKG
modifications: also: homodimer: C-termini linked to both amino groups of a C-terminal lysine core -K-G
For B1, in assay [2], the “IC50 NL4-3 [nM], anti-HIV activity” value was found to be 3080 nM. [NMeL]EKIPCSIPPEFLFGKPFVF (also: homodimer via intermolecular disulfide between Cys6 of the two chains) [VIR-716]: the “IC50 NL4-3 [nM], anti-HIV activity” value in assay [2] amounted to 182 nM.

As for LEAIPCGIP[dP]EV[dTic]FNKPFVF (also: homodimer via intermolecular disulfide Cys6-Cys6) [VIR-706], the “IC50 NL4-3 [nM], anti-HIV activity” value in assay [2] was found to be 74 nM. For [NMeL]EAIPCSIPPEFLFGKPFVF (also: homodimer via intermolecular disulfide between Cys6 of the two chains) [VIR-712], the “IC50 NL4-3 [nM], anti-HIV activity” value in assay [2] amounted to 195 nM.
